Results reported in US20190276534A1.

Target: human PD-1 on CHO cells (human) (UniProt Q15116)
Assay: flow cytometry, CHO cells with human PD-1 incubated with antibody 100 nM, then PD-L2-FITC; competitor PD-L2-FITC

Sequence of human PD-1 on CHO cells (human) (Q15116 25-288 limits assumed): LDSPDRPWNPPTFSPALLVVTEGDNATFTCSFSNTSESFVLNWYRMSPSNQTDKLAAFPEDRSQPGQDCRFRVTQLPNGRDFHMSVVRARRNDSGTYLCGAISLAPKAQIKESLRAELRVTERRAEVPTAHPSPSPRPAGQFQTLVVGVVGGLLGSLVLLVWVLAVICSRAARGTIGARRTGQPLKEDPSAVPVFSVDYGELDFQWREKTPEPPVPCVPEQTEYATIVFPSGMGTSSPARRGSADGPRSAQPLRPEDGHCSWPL

MFI (PD-L2-FITC) in presence of the antibody: 183000
Substance: control IgG (antibody)
